Literature values, collected in publication PMC11302571.

Molecular target: BT-R3 (Anopheles gambiae)

Question: With Cry4B toxin (from UniProt P05519) as the substance, how does the Kd read?
Answer: 36 nM
